Source: paper PMC10602362, “Interchangeability of class I and II fumarases in an obligate methanotroph Methylotuvimicrobium alcaliphilum 20Z” (PLOS ONE, 2023)
Blank lines part the entries; values can stand above or below the molecule they belong to.

Key:
FumC (class II fumarase) [1] = target: T1, FumC (class II fumarase) (Methylotuvimicrobium alcaliphilum, UniProt G4SWR5); assay: coupled assay with NADP-dependent malic enzyme at […] nm; type: biochemical; set-up: full length (gene 1404 bp), His6-tagged, pET22b(+), E. coli BL21(DE3); homotetramer (184 kDa); details: 1 mM fumarate, 50 mM Tris-HCl pH 8.0, coupling enzyme present
FumI (class I fumarase) [2] = target: T2, FumI (class I fumarase) (Methylotuvimicrobium alcaliphilum, UniProt G4T1T1); assay: spectrophotometric hydration assay at […] nm, Hill fit; type: biochemical; details: 50 mM Tris-HCl pH 8.5, optimal conditions, aerobic; Hill n = 1.4 ± 0.2; read-out: Class I fumarase / S0.5
T2 construct: gene fumA; full length, 507 residues, His6-tagged, pET22b(+), E. coli BL21(DE3); homodimer (130 kDa); aerobically purified, stabilised with iron-sulfur mixture; [4Fe-4S]

FumC (class II fumarase) [3] = target: T1, FumC (class II fumarase); details: read-out: Class II fumarase (FumС) / Km(S0.5*); 50 mM Tris-HCl pH 8.0; text b40 prints 0.10 ± 0.001 mM
FumI (class I fumarase) [4] = target: T2, FumI (class I fumarase); assay: coupled assay with NADP-dependent malic enzyme at […] nm; type: biochemical; details: activator; 1 mM succinate, 1 mM fumarate, 50 mM Tris-HCl pH 8.5, 5 mM MgCl2; coupling enzyme present
purified protein [5] = substrate: O=C(O)C[C@H](O)C(=O)O; assay: purified protein
purified protein [6] = substrate: C/C(=C\C(=O)O)C(=O)O; assay: purified protein; type: biochemical, Methylotuvimicrobium alcaliphilum; details: 50 mM Tris-HCl pH 8.5, aerobic, Hill n = 1.4 ± 0.1, error in Table 1 printed ± 0.2
[7] = 50 mM Tris-HCl pH 8.5, Hill n = 2.1 ± 0.4
[8] = 50 mM Tris-HCl pH 8.5, aerobic, Hill n = 1.7 ± 0.1, error in text b33 ± 0.03

- % reduction of activity at 1 mM (FumC (class II fumarase) [1]; 1 mM citrate): 50%
Molecule: O=C(O)CC(O)(CC(=O)O)C(=O)O [citrate]

- % reduction of activity at 1 mM (FumC (class II fumarase) [1]; 1 mM phosphoenolpyruvate): 30%
Molecule: C=C(OP(=O)(O)O)C(=O)O [phosphoenolpyruvate]

- Km (FumI (class I fumarase) [2]): 280 ± 40 µM
- Km (FumC (class II fumarase) [3]): 110 ± 4 µM
Molecule: O=C(O)/C=C/C(=O)O [fumarate]

- fold activity at 1 mM (FumI (class I fumarase) [4]): ~ 1.5 fold
Molecule: O=C(O)CCC(=O)O [succinate]

B1: FumC (class II fumarase) (Methylotuvimicrobium alcaliphilum 20Z) (protein)
chain: MTIGSSAGRIESDALGSIEVPADKYWGAQTQRSLHYFAIGDERLPRPLIRALGIVKRCAALSNIAQNKLDEKLGRAIVDAAQEVIDGALDEHFPLVIWQTGSGTQSNMNANEVIANRVNERLGGALGSKSPVHPNDHCNLSQSSNDVFPSAMHIAAVEQLQCLLIPSLQRLQKTLSDKSQAWADIIKIGRTHLQDATPLSLGQEFSGYATQVQLSIERLQDSLKRLYPLAQGGTAVGTGLNSSQGFAELFADEVAKFTGHPFTSAANKFEAMAAHDALVELSGVLNCSAVSLNKIANDIRLLSSGPRSGLGELILPANEPGSSIMPGKINPTQCEALTMVCTQVIGNHTTVTLAGAQGHLELNTFKPVMIYNVLQSIRLLGDAAHSFTEHCVAGIQPNAERIAELMEQSLMLVTALVPQIGYDKAAQIAKTAMQNGTTLREEAIAVGLVSAEQFDAIVRPERMIMPK
- K0.5 (purified protein [5]; [7]): 0.14 ± 0.01 mM
- kcat/Km (purified protein [5]; [7]): 1000 M⁻¹ s⁻¹

B2: FumI (class I fumarase) (Methylotuvimicrobium alcaliphilum 20Z) (protein)
chain: MTLIRQEDFIQSIFESLQYISYYHPQDFIEAMYRAYQNEQSSAAKDAIAQILINSRMCAEGHRPICQDTGIVVVFLKIGMNVQWDAQISITDMVNEGVRRAFMHPDNILRASILSDPAGKRINTRDNTPAVVYMEVVPGDRVEVEIAAKGGGSEAKSKFAMLNPSDSIVDWVMQTVPTMGAGWCPPGILGIGIGGTAEKAMLLAKQACMESVDIHELIARGPVNALEELRLELYEKVNALGIGAQGMGGLTTVLDIKIKDYPAHAANKPVAMIPNCAATRHIHFELDGSGPAELPVPCLEDWPKIAWEGGNSAKRVNLDTVTKDEIATWRPGETLLLSGTLLTGRDAAHKRIVEMLERGEALPEGVDFTNKFIYYVGPVDPVRDEVVGPAGPTTATRMDKFTEAMLAQTGLIGMIGKAERGPVAIEAIKKHRAVYLMAVGGAAYLVSKAIRKARVVAFEDLGMEAVHEFVIEDMPVTVAVDVDGESIHKSGPKQWQAKIGKIPVVSK
notes: full length, 507 residues, His6-tagged, pET22b(+), E. coli BL21(DE3); homodimer (130 kDa); aerobically purified, stabilised with iron-sulfur mixture; [4Fe-4S]
- K0.5 (purified protein [5]; [8]): 0.55 ± 0.02 mM
- kcat/Km (purified protein [5]; [8]): 180 M⁻¹ s⁻¹
- K0.5 (purified protein [6]): 0.24 ± 0.02 mM
- kcat/Km (purified protein [6]): 750 M⁻¹ s⁻¹
